The source of these data is a protein production outcome set (Wang et al. 2014).

This series can be described thus: label from the status in PepcDB records.
Consider “MNLLTNEKTIKVFSSLIYTSLIISLIAMIFDVKLASKIFNTIGIISAILLFINKREIKKESMLIPLSILFLCVTNLIWEQLYKNSGSEIIGLYHSYHNVMKILFLGSSLTLFVMTFSSKHPLTKNALNIIYTIPFFLVLYYLLSEPEVRFSISDKIATSSAYMISFIGILTSQVILLKTEKRNLFFYFINHIIFFTIIVLSGTRAAILAYPLLSAIVLIPAILKDKKINLKLIILYIMVNIVCLVACQKTIMSRSENLISDINMYNQSNSESSVGARIAMYRSGLTSFIHAPMGQSAESRQLDIQKQAEQNPSLSGAALLTGIHLHNELIEAISLKGIIGGMALLLLYASLFYFSSFILKDYALTSLTLSLVIYGLSDVIFYGKNATTVWIVTYCLSILLVKRNRGVQ”, for which the protein production result was “failed”.
For “MRTNKDRLVRISVVGEIAPAKMRSPYSVTTEGTVRVIPVLGGITYNVKVGDSAYGWAGDHVEPGVSVMARRKEEEIPLMTLSCIGNEVIVMSGDAKGSRGFVTGKHGGVNHVLVHFEEEVLGKLMVGDKILIKAWGQGLKLLDHPDVKVMNIDPDLFEKLGIQEKNGKIHVPVVAKIPAHMMGSGIGASSSASTDYDIMASNPEDLGVADLKLGDIVAIQDHDNSYGVGKYRKGAVSIGVVVHSACVSAGHGPGVVVIMTGDESKILPEEVERANISDYLVR” the value was “not failed”; for “MVRVVRHSRGTCNRGLYEVRELARNRTLQQWGVEDSAELYGIRNWGAGYFDVAQNGDVVVYPFGHNRGPAVSIPEIIGGMRERGYDMPVLLRIENILDSQITSLHTSFRNAIGSLGYKGEYRGIFPIKVNQQQQVVEKIAQFGSHYHHGLEVGSKAELIAAVSQLRDREACLVCNGYKDEEFIDLGLHAVRLGFMCIFVLEMPGELDLILERGEALGVKPIIGVRAKLSVKAGGHWTDSGGERSTFGLTTSQIVDVVDRLKEKGMLDCFKLLHYHLGSQVPNIRDIRAAVMEACRIYAGLVQEGAAMGFLDLGGGLAVDYDGSHTNFVSSRNYTLDEYCADIVEAVMTTLDEQNIPHPHIVTESGRATVAYYSMLLFNILDVSRVEIGNLPDALPEDTPEPVRNMREVLAGMTLRNLQECYNDALYYRDAVRQLFLTGQVTLRQRTLSERLFWAIMKRIAQEKQKLKHVPKDLAEIDVALADIYYGNFSVFQSLPDSWAIDQLFPVMPVHRLQELPSRQGILSDITCDSDGRIDHFIDPQGMKGTLDLHPLRDGEEYYLGVFLVGAYQETLGDLHNLLGDTNVVSVRVHEDGTYEFVREIRGDSVADILSYVEYDPRRIYEDIRELAERAVREGRITASDRFRVMQAYEDGLRGYTYFERLEHHHHHH”, “failed”; for “MTNFQRARSEEQRAVRRQAILDTTAAMLEEMPVGEVSLNELSRRVGLAKSNVLRYFESREAILLELLDRAWQQWVADLPALVHAGVDQGAPVSRRAEQFAAVIAASLAGRQVLCDLLSAQAGVLEHNVSPQVAARYKRAAVANVADIAALAHQHLPELGASAPQLTAVMIMAVGAVWTHARPSPAMLSAYEADPSLTAFKLDFVTTLQEMLATLTAGTIARESA”, “not failed”.
Next, “MTAAPAALHDRALHLLQTIWGYPAFRGVQGEIVQQVAEGGNALVLMPTGGGKSLCYQLPSLLRPGTGIVVSPLIALMKDQVDTLRQNGVRAAFLNSTLLPHEAREVEDALLRGDLDLLYVAPERLLMPRTLDLLERAPVALFAIDEAHCVSQWGHDFRPEYQQLSVLAERFPELPRVALTATADERTRADIKSVLRLEDAPQFVSSFDRPNIQYRVGLKDSPKTQLLHFIREEHPGDAGIVYCLSRKSVEETAKWLQAQGIDALAYHAGLSSTERNNVQERFLNEEGVIVCATVAFGMGIDKPNVRFVAHLDLPKSMEGYYQETGRAGRDGLPSTAWMVYGLSDVVNVRRMLAQSDAPEEVKRVEASKLDALLTYCEAATCRRQVLLHYFGEELSEPCGNCDVCLNPPRVRDLTREAQMALSATIRTGNRFGAAHLTDVLLGRETDKVLAQGHHQLPTFGVGKEHDEKLWRSVLRQLVSLGYLSADDHFGLRATGKSRGILKEGQKLLLREDTLLPGAGKSKRDRASASRAALDSHDAPLFEALRAWRLQKAKELSLPPYTIFHDATLKTIAELRPGSHATLGTVSGVGGRKLAAYGDEVLQVVRDSSGGGQAGPENLLDSPAFDPAVRGARNNNAVLDVLGSKGELQPQPKPAHPGVLGALRELRRTLAAEQGRSLSWVFPEATIDELARKLPTRSEELKDVFGLGGQRIQAFGDRILATIRAELTGGAPSPAPSAPAALFDEAVPPAPNADLSEALRELRRELMKETGYSAFVVFTNATLEALAARQPRTLAELAEVPGLGEKRIEAYGERILDAINTVLDG”: “failed”.
For “MRILLVEDDELIGELLVKSLTSQHYTVDFAKDGQEGWDFAELYTYDLILLDLILPKLDGISFCRQLRASGNQTPILLLTSQDTSITKVTGLDAGADDYVAKPFDFQELLARIRALLRRGGSALPPLLEWNNLRLDPSTCEVACDGKLLHLTPKEYGLLELFLRNSHRIFSCSALIDQLWSFEEPPTEDTVRSHIKGLRQKLKAAGVVEDPIDTVYGIGYRLKPVQPGREEELNTEKVVAAIANPVENEVRKVWEDVVEKIEQRVAVIEQASHKLLQNKVSEEILSKAKVEAHKLAGSLGMFGSDEGSQIAQEIESLLDNGKKLKASGGKHLGQVVEALHQELENLKSGYKTELSVVETKADDRPLVLVIDQDQELVRESRSQGSEAIAPGQLTDARVMIVDDDPQILTTLQTLLSAWGIKVYTLPHPQGFLAARLGNLAEIDTLTLVANRRKSTQELNHYLQWCHTHQQTLSFAVVKLDGLKQINYNYGHEIGDRVLSQLGELLRQMFHSQDVVGRWGGTEFILGMAGITKGEGVRRLGELLKTFRQIEFINTSNQSFHATLSAAVVEYPQDGDKLEVLYQAADIVLHQSKATGRNRVLSS” the value was “failed”; for “MMGRVAMLTGSRGLRYATVIALVAALVGGVYVLSSTGNKRTIVGYFTSAVGLYPGDQVRVLGVPVGEIDMIEPRSSDVKITMSVSKDVKVPVDVQAVIMSPNLVAARFIQLTPVYTGGAVLPDNGRIDLDRTAVPVEWDEVKEGLTRLAADLSPAAGELQGPLGAAINQAADTLDGNGDSLHNALRELAQVAGRLGDSRGDIFGTVKNLQVLVDALSESDEQIVQFAGHVASVSQVLADSSANLDQTLGTLNQALSDIRGFLRENNSTLIETVNQLNDFAQTLSDQSENIEQVLHVAGPGITNFYNIYDPAQGTLNGLLSIPNFANPVQFICGGSFDTAAGPSAPDYYRRAEICRERLGPVLRRLTVNYPPIMFHPLNTITAYKGQIIYDTPATEAKSETPVPELTWVPAGGGAPVGNPADLQSLLVPPAPGPAPAPPAPGAGPGEHGGGG”, “failed”; for “SERTELLKPRTLADLIRILHELFAGDEVNVEEVQAVLEAYESNPAEWALYAKFDQYRYTRNLVDQGNGKFNLMILCWGEGHGSSIHDHTDSHCFLKLLQGNLKETLFDWPDKKSNEMIKKSERTLRENQCAYINDSIGLHRVENVSHTEPAVSLHLYSPPFDTCHAFDQRTGHKNKVTMTFHSKFGIRTPFTTSGSLENN”, “failed”.
Turning to “MSIKPKIMISSLDAERLEILLETLSQNAFPGRDDLEAELARAEVVDPEEIPPTVVTMNSTVRFRVESSAEEFCLTLVYPKDVDTSGEKISILAPVGSALLGLAQGDEIEWPKPGGGVLRVRIVEVTYQPERSGEYYR”, the protein production entry is “not failed”.
Next, “MSQLLKLKSQYDDECTVTRHYEGKGRNAGRLGAVGCKNRHGEFRIGSGFKDKDRDNPPKIGTLITYRYRGFTRKGTPKFATFVRVRTLEHHHHHH”: “failed”; “MSGSLLLLFVFLSAFLAPPLSRLLRMPVPVGELVIGLLLGHFLAQGVALPEILGFLADFGFLLLMFLAGLEVDFNLLRQLERRHFVFYALYVVGMFLGAGLLAGLLGVGLAQALILALVSIGLMVATLRDMGILGRAFAKRVLILGVLGEVASLFGLTAMEKAAHYQGLLSLLKEVGIIALFFLLLFLAFRLAGLFLWWYPEVGRRLVYEEDPSAMGIRLSLALMFAAAVMSGLVGLESVLGAFLAGMILSYFLQKKHDLEAKLSAMGYGFLIPIFFIRTGMGIDLSGLDGRLLLEVGQALLLMLLIRLLPAPFLLLGGFRLREAFLAALLLAYPFTLMIAGTEIARSAHLLDERAALVLLLAAALSSLLFPWTAKMLLRFLR”: “failed”.
